We go through three molecules from patent US20260137799A1, “ANTI-MUC1* ANTIBODY DRUG COMPLEXES AND USES THEREOF” (Minerva Biotechnologies Corporation, priority 2023, published 2026).

One assay relates to T47D. Description: xCELLigence impedance cytotoxicity, T47D. The following applies: Example 9 (FIGS. 35-36); average over batches for DXd ADCs; read-out: IC50 for killing of breast cancer T47D-wt cells. Type of assay: cell-based, human. As to the method: (§1) An xCELLigence RTCA MP Instrument (Agilent) was used to assess real-time killing of target cancer cells). In the xCELLigence system, target cancer cells, which are adherent, are plated onto electrode array 96-well plates. Adherent cells insulate the electrode and increase the impedance. The number of adherent cancer cells is directly proportional to impedance. […] Therefore, increasing impedance reflects the growth of the cancer cells and decreasing impedance reflects the killing of the cancer cells.
(§2) Target Cancer cells (Table 9) were seeded onto a multi-electrode well plate at a density of 5000 cells/well (100 μL of a 50,000 cells/mL stock) and incubated for 24 hr in a 37° C./5% CO2 incubator. ADCs were prepared as a 2× solution in corresponding growth media and 100 μL of each concentration was added to target cells. As a positive control (100% cell killing) cells were treated with either 1% triton or 1 μM Taxol instead of ADC. After 40-120 hours incubation in a 37° C./5% CO2 incubator cell killing was assessed. In this assay, impedance is measured in real-time. When the adherent cancer cells are killed and come off the electrode surface, impedance (insulation) decreases.

Another assay concerns H1975-MUC1*45 cells. Briefly: Antibody internalization (pHrodo Deep Red), H1975-MUC1*45. Conditions: H1975-MUC1*45 vs H1975-wt. The assay is classed as cell-based, human. As to the method: (§3) Antibodies C2 and 3C2B1 were tested for their ability to be internalized by H1975 lung cancer cells (H1975-wt) and H1975 cells that were engineered to express high levels of a recombinant MUC1* polypeptide with a 45 amino acid extracellular domain (H1975-MUC1*45). In contrast to the T47D breast cancer cells, H1975-wt cells internalized 3C2B1 faster than they internalized C2 (FIGS. 4A1-4A28, 4C1-4C28 and 4E). Two (2) hours post incubation with H1975-wt cells, […] the cells had internalized C2. […] Similar to the T47D cells, MUC1*45 expression increased the internalization rate of C2 and decreased the internalization rate of 3C2B1 (FIGS. 4B1-4B28, 4D1-4D28 and 4E).
(§4) Antibodies C2 and 3C2B1 were coupled to a pH sensitive fluorophore using the pHrodo Deep Red TFP Ester kit (Thermo cat #P35356), according to manufacturer instructions. Cancer cells were seeded at ˜50,000 cells/well onto μ-Slide 8-well tissue culture-treated, chambered coverslip wells (Ibidi 80806) in their recommended media with 10% FBS. Cells were cultured for 48 hours. Slides were transferred into microscope chamber (37° C.—5% CO2) and equilibrated for ˜30 minutes. The pHrodo Deep Red coupled antibody was then diluted to a concentration of 200 to 300 μg/mL into pre-warmed media supplemented with 10% FBS. Media was removed from the chamber slides and the diluted antibodies were separately added. Fluorescent (655 nm) and phase contrast images at were collected every 10 min for 12h or 16 h with a Leica Thunder Live Cell 3D microscope.
(§5) Internalization of the fluorescently labeled antibodies was quantified as follows. Images were imported into ImageJ. The selection tool was used to draw a region of interest (ROI) on the image. The integrated pixel density (mean gray-scale value×area) was then measured by the ImageJ software. Positively-stained cells were manually counted and the integrated pixel density was divided by the number of positive cells to yield “Pixel Intensity per positive cell”.

The subject of the next assay is HPAF-II. Briefly: xCELLigence impedance cytotoxicity, HPAF-II. Type of assay: cell-based, human. Conditions: Example 9 (FIG. 35); average; listed as 3C2B1-MC-GGFG-AM-DXd; read-out: IC50 for killing of HPAFII-wt pancreatic cancer cells. As to the method:
as §1, §2

In assay [1] the test system is H2110-wt lung cancer cell line. Description: xCELLigence impedance cytotoxicity, H2110. The assay is classed as cell-based, human. The following applies: Example 9 (FIGS. 35-36); read-out: IC50, lung cancer H2110-wt cells. On the procedure:
as §1, §2
(§6) To directly compare the C2 and 3C2B1 anti-MUC1* antibodies as ADC targeting domains, a panel of MUC1* positive cancer cell lines representing different cancer types were treated with C2-deruxtecan versus 3C2B1-deruxtecan (FIG. 35) or C2-MC-VA-PAB-exatecan versus 3C2B1-MC-VA-PAB-exatecan (FIG. 36). In some cases, the cancer cells were engineered to express high levels of MUC1*45.

For assay [2], the system named is H1975 lung cancer cells (H1975-wt). Description: Antibody internalization (pHrodo Deep Red), H1975-wt. The assay is classed as cell-based, human. The following applies: H1975 cells. As to the method:
as §3, §4, §5

The target in a further assay is MUC1*45 (UniProt P15941 1110-1255). Description: cell-based or functional assay.
The test system of assay [3] is CFPAC1-wt pancreatic cancer cell line. Description: xCELLigence impedance cytotoxicity, CFPAC1. Conditions: Example 9 (FIGS. 35-36); read-out: IC50, CFPAC1-wt pancreatic cancer cells. Type of assay: cell-based, human. On the procedure: as §1, §2, §6
The next assay concerns HPAF-II MUC1*. Briefly: xCELLigence impedance cytotoxicity, HPAF-II MUC1*. Type of assay: cell-based, human. Conditions: Example 9 (FIG. 35); average; read-out: IC50, HPAFII cells engineered to express MUC1*45. As to the method: as §1, §2
In assay [4] the target is PSMGFR C-10 peptide (SEQ ID NO: 3) (Homo sapiens, UniProt P15941). Description: ELISA binding to PSMGFR C-10 peptide. Conditions: ELISA. An excerpt:
Cancer selective anti-MUC1* antibodies bind to a membrane proximal conformational epitope within the MUC1* extracellular domain, as described in WO 2020/146902.
The 3C2B1 epitope was mapped more precisely with additional PSMGFR peptide variants (FIGS. 2A, 2B).
Background: In an ELISA, binding on a coated surface is turned into a signal by an enzyme label.

Assay [5] concerns MUC1 after cleavage by MMP9. Briefly: Binding to MUC1-expressing cells after MMP9 cleavage. Type of assay: cell-based. As to the method: The binding strength of anti-MUC1* antibodies is evaluated by determining their ability to displace NMF7-AB (a MUC1* ligand) from MUC1* immobilized on the plastic surface of a 96-well plate. Because the cancer-selective MUC1* epitope is a conformational epitope, cancer-selective anti-MUC1* antibodies should not recognize MUC1* on a western blot, where the epitope is linearized. MMP9 is a protease that cleaves MUC1 to generate MUC1*. MMP9 is a predictor of poor prognosis for breast cancers. Some cancer-selective anti-MUC1* antibodies, particularly breast cancer selective antibodies, should bind to cells engineered to express MUC1 after they are contacted with MMP9 to convert the MUC1 to MUC1*.
Sequence of MUC1 after cleavage by MMP9 (P15941 1120-1255 limits assumed): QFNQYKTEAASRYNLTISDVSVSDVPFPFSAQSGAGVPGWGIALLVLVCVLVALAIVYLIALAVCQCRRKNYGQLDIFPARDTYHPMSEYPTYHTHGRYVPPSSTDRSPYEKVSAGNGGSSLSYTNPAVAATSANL

Sequence of PSMGFR C-10 peptide (SEQ ID NO: 3) (P15941 1110-1144 limits assumed): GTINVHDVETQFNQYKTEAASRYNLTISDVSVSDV

B1: 3C2B1-deruxtecan (antibody, V domains shown)
VH: EVMLVESGGGLVKPGGSLKLSCAASGITFSTYTMSWVRQTPEKRLEWVATISTGGDKTYYSDSVKGRFTISRDNAKNNLYLQMSSLRSEDTALYYCARGTTAMYYYAMDYWGQGTSVTVSS
VL: DIVLTQSPASLAVSLGQRATISCRASKSISTSDYNYIHWYQQKPGQPPKLLIYLASNLESGVPARFSGSGSGTDFTLNIHPVEEEDAATYYCQHSRELPLTFGAGTKLELK
modifications: deruxtecan (MC-GGFG-AM-DXd) on reduced cysteine thiols of the antibody, sites not stated; deruxtecan (MC-GGFG-AM-DXd) on reduced cysteine thiols of the antibody, sites not stated; average DAR 9.2
Take B1: the IC50 in the assay with T47D is 61 nM; in the assay with HPAF-II, over 303 nM; in [1], 90 nM; in assay [3], 34 nM; with HPAF-II MUC1*, 160 nM. Besides, in the assay on H1975-MUC1*45 cells, the “effect of MUC1*45 expression on internalization rate” value was “inhibited”. For the same molecule, the “internalization rate of the ADC compared to antibody alone” value in [2] is “about the same rate as the 3C2B1 antibody alone”. Further, in the assay with MUC1*45, the “IC50, killing of H1975 lung cancer cells engineered to express MUC1*45 (xCELLigence)” value turned out to be 343 nM. In addition, the “IC50, killing of T47D breast cancer cells engineered to express more MUC1*45 (xCELLigence)” value with MUC1*45 was found to be 48 nM.

B2: 18G12: anti-MUC1* monoclonal antibody that bound to the PSMGFR peptide (antibody, V domains shown)
VH: QVQLVQSGAEVKKPGASVKVSCKASGYTFTGYFLYWVRQAPGQGLEWIGGINPDNGGIDFNEKFRNRATLTVDKSSSTAYMELSSLRSEDTAVYYCTLLIGNYWGQGTLVTVSS
VL: DVVMTQTPSSLSVTPGQPASISCKSSQSLLHSDGKTYLIWLQQKPGQSPQRLIYLVSKLDSGVPDRFSGSGSGTDFTLKISRVEAEDVGVYYCCQGTHFPWTFGQGTKVEIK
In the case of B2, the “Does not bind C-10” value in assay [4] is given as 0. Moreover, in assay [5], the “Recognizes MUC1 after cleavage by MMP9” value is on record as 0.

B3: 28F9: anti-MUC1* monoclonal antibody that bound to the PSMGFR peptide (antibody, V domains shown)
VH: QVQLVQSGAEVKKPGASVKVSCKASGYTFTGYFLYWVRQAPGQGLEWIGGIHPSNGDTDFNEKFKNRATLTVDISSSTAYMELSSLRSDDTAVYYCARLIGVYWGQGTLVTVSS
VL: DVVMTQSPLSLSVTLGQPASISCKSSQSLLHSDGKTYLIWLQQRPGQSPRRLIYLVSKLDSGVPDRFSGSGSGTDFTLKISRVEAEDVGVYFCCQGTHFPWTFGQGTKVEIK
modifications: humanized form
In the case of B3, in [4], the “Does not bind C-10” value worked out at 0. Moreover, in assay [5], the “Recognizes MUC1 after cleavage by MMP9” value turned out to be 0.

A word on the IC50: it is the concentration at which inhibition is half-maximal.
